One experiment concerns the target T1, Nectin-like-2 (UniProt Q9BY67 45-374, limits assumed).
T1 construct: Bought recombinant protein; also called CADM1; IgSF4
T1 sequence (looked up): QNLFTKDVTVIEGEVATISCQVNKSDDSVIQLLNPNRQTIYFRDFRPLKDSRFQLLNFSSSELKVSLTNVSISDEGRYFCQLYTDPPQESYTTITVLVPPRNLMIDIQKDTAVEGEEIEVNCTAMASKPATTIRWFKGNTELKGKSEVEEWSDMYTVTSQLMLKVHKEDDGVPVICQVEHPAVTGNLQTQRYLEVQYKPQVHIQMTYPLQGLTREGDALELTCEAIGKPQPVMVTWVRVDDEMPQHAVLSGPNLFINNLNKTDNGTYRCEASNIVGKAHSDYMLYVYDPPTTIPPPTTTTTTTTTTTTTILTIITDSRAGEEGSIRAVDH
Briefly: ELISA, coated antigen, antibody at 100 ng/ml. On the procedure: (§1) Coating: Nectin-1, Nectin-2, Nectin-3, Nectin-4, Nectin-like-1, Nectin-like-2, Nectin-like-3, Nectin-like-4, and Nectin-like-5 were diluted to 5 μg/ml in coating buffer (carbonate buffer, pH 9.6) respectively. A 96-well plate was coat with 100 μl per well and incubated overnight at 2-8° C.;
(§2) Sample loading: The plate was taken out, patted dry, and washed twice with 200 μl/well of PBST, then patted dry. The Nectin-4 antibodies prepared in Example 1 (antibody MM11, antibody R012, and antibody R036) were diluted with 1% BSA/PBST to concentrations of 10 μg/ml, 1 μg/ml, 100 ng/ml, and 10 ng/ml, respectively. 1% BSA/PBST solution for dilution was set as a blank control. 100 μl per well was added to the 96-well plate, and incubated at room temperature for 2 hours;
(§3) Reaction termination and plate reading: 100 μl/well of 1 mol/L H3PO4 was added to terminate the reaction and the plated was read. The absorbances of wells in the plate at 450 nm with 650 nm as reference wavelength were read and recorded as OD_{450 nm-650 nm}.

The target in the next experiment is T2, Nectin-like-5 (UniProt P15151 21-343).
T2 construct: Bought recombinant protein; also called CD155; PVR
T2 sequence (looked up): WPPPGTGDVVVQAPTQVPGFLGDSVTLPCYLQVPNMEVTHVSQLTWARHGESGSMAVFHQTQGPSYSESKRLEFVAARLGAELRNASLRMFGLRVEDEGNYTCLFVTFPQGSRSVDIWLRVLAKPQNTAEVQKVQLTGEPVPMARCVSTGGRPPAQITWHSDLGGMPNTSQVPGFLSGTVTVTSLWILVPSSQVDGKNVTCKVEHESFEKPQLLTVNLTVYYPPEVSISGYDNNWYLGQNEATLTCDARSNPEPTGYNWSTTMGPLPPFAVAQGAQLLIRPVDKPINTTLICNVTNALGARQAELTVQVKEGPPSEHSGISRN
The experiment in a line: ELISA, coated antigen, antibody at 100 ng/ml. On the procedure: as §1, §2, §3
In general terms: ELISA stands for enzyme-linked immunosorbent assay.

Experiment [1] addresses T3, recombinant human Nectin-4 protein (human, UniProt Q96NY8 32-349).
T3 construct: Prepared in-house (Jiangsu Mabwell) by transient transfection of CHO cells; also called PVRL-4; PRR-4
T3 sequence: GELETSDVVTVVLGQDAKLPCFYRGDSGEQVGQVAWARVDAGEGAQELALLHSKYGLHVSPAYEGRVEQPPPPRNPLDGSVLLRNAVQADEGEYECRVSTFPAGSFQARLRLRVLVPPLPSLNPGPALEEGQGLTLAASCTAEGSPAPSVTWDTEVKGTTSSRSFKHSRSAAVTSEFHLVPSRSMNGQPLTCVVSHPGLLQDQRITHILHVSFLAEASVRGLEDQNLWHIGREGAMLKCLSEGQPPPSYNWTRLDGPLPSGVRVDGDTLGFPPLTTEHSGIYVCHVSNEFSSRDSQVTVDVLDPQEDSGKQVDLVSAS
Briefly: ELISA, coated antigen, antibody at 100 ng/ml. On the procedure: as §1, §2, §3

The target in experiment [2] is T4, Nectin-2 (UniProt Q92692 32-360, limits assumed).
T4 construct: Bought recombinant protein; also called CD112; PVRL-2
T4 sequence (looked up): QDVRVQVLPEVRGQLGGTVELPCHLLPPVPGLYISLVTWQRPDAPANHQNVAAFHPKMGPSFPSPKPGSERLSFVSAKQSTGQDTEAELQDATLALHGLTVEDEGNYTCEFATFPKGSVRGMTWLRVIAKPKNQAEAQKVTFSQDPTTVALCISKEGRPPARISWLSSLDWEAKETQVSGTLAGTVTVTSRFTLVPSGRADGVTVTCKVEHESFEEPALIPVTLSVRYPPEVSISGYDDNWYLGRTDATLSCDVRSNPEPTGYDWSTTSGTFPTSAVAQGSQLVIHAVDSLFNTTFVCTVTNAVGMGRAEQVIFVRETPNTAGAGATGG
Briefly: ELISA, coated antigen, antibody at 100 ng/ml. On the procedure:
as §1, §2, §3

The next experiment concerns the target T5, Nectin-3 (UniProt Q9NQS3 58-404, limits assumed).
T5 construct: Bought recombinant protein; also called CD113; PVRL-3
The experiment in a line: ELISA, coated antigen, antibody at 100 ng/ml. On the procedure: as §1, §2, §3

The target of another experiment is T6, Nectin-like-1 (UniProt Q8N126 25-330, limits assumed).
T6 construct: Bought recombinant protein; also called CADM3; IgSF4B
T6 sequence (looked up): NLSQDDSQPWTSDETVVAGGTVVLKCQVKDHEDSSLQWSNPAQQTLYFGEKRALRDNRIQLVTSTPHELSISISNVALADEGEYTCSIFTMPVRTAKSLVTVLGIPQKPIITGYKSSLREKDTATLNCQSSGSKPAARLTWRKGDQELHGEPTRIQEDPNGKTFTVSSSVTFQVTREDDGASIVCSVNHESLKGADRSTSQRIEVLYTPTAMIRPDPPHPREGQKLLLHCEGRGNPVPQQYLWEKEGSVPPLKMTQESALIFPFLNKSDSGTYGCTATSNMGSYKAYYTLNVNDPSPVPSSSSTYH
The experiment in a line: ELISA, coated antigen, antibody at 100 ng/ml. On the procedure: as §1, §2, §3

In another experiment the target is T7, Nectin-1 (UniProt Q15223 31-334, limits assumed).
T7 construct: Bought recombinant protein; also called CD111; PVRL-1
T7 sequence (looked up): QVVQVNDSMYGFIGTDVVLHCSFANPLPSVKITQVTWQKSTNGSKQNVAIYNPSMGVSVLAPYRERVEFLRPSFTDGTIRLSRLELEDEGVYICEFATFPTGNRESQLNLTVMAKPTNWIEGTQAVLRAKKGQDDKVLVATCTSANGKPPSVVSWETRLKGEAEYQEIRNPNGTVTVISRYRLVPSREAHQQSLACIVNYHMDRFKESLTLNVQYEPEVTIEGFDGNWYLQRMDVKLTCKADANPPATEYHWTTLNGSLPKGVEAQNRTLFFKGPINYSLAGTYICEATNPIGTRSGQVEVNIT
Briefly: ELISA, coated antigen, antibody at 1000 ng/ml. On the procedure: as §1, §2, §3

The target in experiment [3] is T4, Nectin-2. The experiment in a line: ELISA, coated antigen, antibody at 1000 ng/ml. On the procedure:
as §1, §2, §3

Here are results for three molecules from US20260265354A1 (JIANGSU MABWELL HEALTH PHARMACEUTICAL R AND D, published 2026).

T5 sequence (Q9NQS3 58-404 limits assumed): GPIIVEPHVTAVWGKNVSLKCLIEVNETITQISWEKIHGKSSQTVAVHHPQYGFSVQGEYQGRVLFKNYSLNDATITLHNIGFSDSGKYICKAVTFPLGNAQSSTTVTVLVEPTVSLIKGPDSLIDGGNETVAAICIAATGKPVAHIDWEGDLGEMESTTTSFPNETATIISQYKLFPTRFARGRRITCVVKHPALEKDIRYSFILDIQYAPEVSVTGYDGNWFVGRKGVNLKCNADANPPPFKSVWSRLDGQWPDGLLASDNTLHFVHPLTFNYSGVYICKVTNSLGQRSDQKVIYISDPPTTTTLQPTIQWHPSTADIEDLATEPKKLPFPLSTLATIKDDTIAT

B1: Antibody MM11 (antibody, mouse IgG1, kappa, V domains shown)
VH: DVQLQESGPGLVKPSQSLSLTCSVTGYSITSNFYWNWIRQFPGNRLEWMGYISYDGSNNYNPSLKNRISISRDTSKNQFFLKLNSVTTEDTATYYCVRADYWGQGTLVTVSA
VL: DTVMTQTPLSLPVSLGDQASISCRSSQSLESSDGHAYLNWYLQKPGQSPQLLIYRVSNRFSGVLHRFSGSGSGTDFTLKISRVEAEDLGVYFCLQFTHVPFTFGSGTKLEIKR
notes: Mouse monoclonal antibody from hybridoma; also called Nectin-4 mouse monoclonal antibody MM11; mouse antibody MM11
For B1, the OD detection value with Nectin-like-2 is 0.007 OD450 nm-650 nm; in the experiment with Nectin-like-5 it was 0.007 OD450 nm-650 nm; in experiment [1] it was 1.64 OD450 nm-650 nm; in the experiment with Nectin-2 [2] it was 0.007 OD450 nm-650 nm; with Nectin-3 it was 0.014 OD450 nm-650 nm; with Nectin-like-1, 0.01 OD450 nm-650 nm. The OD detection value amounted to 0.007 OD450 nm-650 nm in the experiment with Nectin-1 and 0.008 OD450 nm-650 nm with Nectin-2 [3].

B2: Antibody R012 (antibody, V domains shown)
VH: SKSVEESGGRLVTPGTPLTLTCTVSGFSLSTYAMSWVRQAPGKGLEYIGIISGRGTTYYASWLKGRFTISKTSTTVDLKITSPTTEDTATYFCARDAGISDVYTGYFNLWGQGTLVTVSS
VL: QPVLAQLPSASAALGASAKLTCTLSSAHRTYTIAWYQQQQGEAPRYLMMLKSDGSYTKGTGVPDRFSGSSSGADRYLIISSVQAADEADYYCGADDSGGYVFGGGTQLTVTG
notes: Rabbit monoclonal antibody from phage display; also called Nectin-4 rabbit monoclonal antibody R012; rabbit antibody R012
On to B2, for which the OD detection value with Nectin-like-2 was 0.008 OD450 nm-650 nm; with Nectin-like-5 it was 0.008 OD450 nm-650 nm; in experiment [1], 1.44 OD450 nm-650 nm; with Nectin-2 [2], 0.007 OD450 nm-650 nm; in the experiment with Nectin-3, 0.007 OD450 nm-650 nm; in the experiment with Nectin-like-1, 0.008 OD450 nm-650 nm. For the same molecule, the OD detection value with Nectin-1 and with Nectin-2 [3] was 0.007 OD450 nm-650 nm in each case.

B3: Antibody R036 (antibody, V domains shown)
VH: SQSVEESGGRLVTPGTPLTLTCTVSGFSLSSYAMSWVRQAPGKGLEYIGIIGGRGTTYYAIWAKGRFTISKTSTTVDLKITSPTTEDTATYFCARDAGTTYVGTTYVATGYFNLWGQGTLVTVSS
VL: QPVLTQPPSASAALGASAKLTCTLSSAHKTYTIAWYQQQQGEAPRYLMILKSDGSYTRGTGVPDRFSGSSSGADRYLIISSVQADDEADYYCGADDSGGYVFGGGTQLTVTG
notes: Rabbit monoclonal antibody from phage display; also called Nectin-4 rabbit monoclonal antibody R036; rabbit antibody R036
Turning to B3, the OD detection value with Nectin-like-2 amounted to 0.007 OD450 nm-650 nm; with Nectin-like-5 it was 0.009 OD450 nm-650 nm; in experiment [1], 1.48 OD450 nm-650 nm; with Nectin-2 [2], 0.007 OD450 nm-650 nm; in the experiment with Nectin-3, 0.007 OD450 nm-650 nm; with Nectin-like-1 it was 0.007 OD450 nm-650 nm. Moreover, the OD detection value was 0.006 OD450 nm-650 nm with Nectin-1 and 0.007 OD450 nm-650 nm with Nectin-2 [3].
